Source: patent publication US8603473B2

Molecular target: bovine submaxillary mucin, a source of the TAG-72 antigen (bovine)
Experiment: binding activity of the Chx-DTPA conjugate; assay not given

avidity against conjugated control parent huCC49: 5 to 6 fold
Substance: HuCC49 CH2 domain-deleted sc(Fv)2 tetravalent antibody conjugated with the chelator Chx-DTPA
